Results: patent US20210340232A1, “MONOCLONAL ANTIBODIES AGAINST HUMAN DICKKOPF3 AND USES THEREOF” (Board of Regents, The University of Texas System, priority 2018, published 2021)

Biological target: murine DKK3 (Mus musculus, UniProt Q9QUN9)
Test: Non-denaturing Western blot of recombinant DKK3 with JM6-6-1
Assay type: binding
Protocol: FIGS. 12A-D. DKK3 expression in mouse PSCs and effects of treatment with DKKC mAb on survival. (FIG. 12A) Western blot analysis of recombinant human and mouse DKK3 under denaturing and non-denaturing conditions using JM6-6-1 mAb. (FIG. 12B) Expression of murine DKK3 in murine PSCs (MPSC) or 3T3 cells was determined by RT-PCR. 18S was used as loading control. (FIG. 12C) Proliferation of MPSCs treated with DKK3 mAb was measured at 7 days by MTS assay. ***p<0.001 vs. PBS. (FIG. 12D) Pdx1-Cre; Kras LSL-G12D;Trp53fl/+ model of PDAC was treated with DKK3 mAb JM6-6-1 or control mAb JM4-74 (5 mg/kg i.p. q5d). Kaplan-Meier survival curves are shown (log rank test). At 0% survival, the right line is JM6-6-1, the middle lines is PBS, and the left line is Control Ab.
Human and murine DKK3 share 83% protein sequence homology by BLAST analysis and therefore it was anticipated that it was likely that JM6-6-1 could cross-react with host DKK3. […] When KPC mice (P48-Cre; Kras^LSL-G12D;Trp53^fl/fl) were treated with JM6-6-1 (red solid line, FIG. 5H), median survival increased by 43% from 43 to 61.5 days compared to PBS or isotype control mAb (p=0.005, HR 0.24, 95% CI 0.01-0.30; FIG. 5H).

murine DKK3, sequence (Q9QUN9 23-349): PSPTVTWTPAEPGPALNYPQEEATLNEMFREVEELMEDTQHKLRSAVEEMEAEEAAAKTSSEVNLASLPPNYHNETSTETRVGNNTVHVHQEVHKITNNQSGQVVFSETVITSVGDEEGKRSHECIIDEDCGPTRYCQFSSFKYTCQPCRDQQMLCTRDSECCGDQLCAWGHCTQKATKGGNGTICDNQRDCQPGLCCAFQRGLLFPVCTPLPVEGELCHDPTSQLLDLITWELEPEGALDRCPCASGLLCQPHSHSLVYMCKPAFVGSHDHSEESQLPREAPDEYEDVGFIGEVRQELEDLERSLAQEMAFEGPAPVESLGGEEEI

B1: JM6-6-1: monoclonal antibody against human DKK3; heavy chain variable SEQ ID NO: 19, light chain variable SEQ ID NO: 20 (antibody, V domains shown)
VH: EVKLVESGGGLVKPGGSLKLSCAASGFTFTIEYMAWIRQTPEKRLEWVASISSGGDDIYYADNVKGRFTISRDNAKNTLYLQMSSLKSEDTAIYYCSRSLSDWGQGTTLTVSSAKTTPPSDYPLA
VL: MTQTPLSLPVSLGDQASISCRSSQSILHSNGHTYLEWYLQKPGQSPKLLIYKVSNRFSGVPDRFSGSGSGTDFTLKISRVEAEDLGVYYCFQGSHVPFTFGSGTKLEIERADAAQ
Question: How did the “cross-reactivity with murine DKK3” value turn out when B1 was run?
Answer: recognizes murine DKK3 although more weakly than human DKK3
